{"source": "patent US20230321209A1", "target": "human Adenovirus capsid", "assay": "SPR, peptide on adenovirus capsid (FIGS. 13A-13B)"}
{"binder": "KKKKKKKRAKVTSAMQTMLFTMLRKL", "note": "[R1A_KRAKV SARS-CoV2 peptide with 6K poly-lysine tail]", "values": [{"measurement": "list of priority (rank by SPR binding, high binders listed first)", "result": 5, "unit": "rank"}]}
